Patent EP4703474A1, “ANTI-LRRC15 ANTIBODY” (priority 2023, dated 2024)

Legend:
[1] = test system: LRRC15-negative human lung carcinoma cell line EBC-1; assay: In vivo antitumor effect, EBC-1 subcutaneous transplant model; conditions: tail vein, on Day 9, female SCID mice
Protocol: The antitumor effects of the antibody-drug conjugates were evaluated by using animal models in which cells of the human tumor cell line had been transplanted into immunodeficient mice. 4 to 6 Week-old SCID mice (CB17/Icr-Prkdc[scid]/CrlCrlj, Jackson Laboratory Japan, Inc.) were habituated for 3 days or more under SPF conditions before experimental use. The mice were fed with sterilized solid feed (FR-2, Funabashi Farms Co., Ltd.) and given sterilized tap water (prepared by adding a solution of 5 to 15 ppm sodium hypochlorite). The major and minor diameters of the transplanted tumors were measured twice a week with an electronic digital caliper ([…] Corporation), and the estimated tumor volume was calculated using the following formula. Estimated tumor volume (mm^3) = 1/2 × major diameter (mm) × [minor diameter (mm)]^2 All antibody-drug conjugates were diluted with ABS and administered into the tail vein at doses shown in each Example. In addition, ABS (vehicle) or control hIgG-PBD prepared in Reference Example 4 was administered as the control group, in a similar manner. 5 to 6 Mice were used per group in the experiment. LRRC15-negative human lung carcinoma cell line EBC-1 (JCRB) was suspended in PBS mixed with 50% Matrigel (Corning Incorporated), 1.0 × 10^6 cells were subcutaneously transplanted into the right flank of female SCID mice (Day 0), and random grouping was performed on Day 9. From publicly known information, it is known that in this tumor model, carcinoma cells are LRRC15 negative, and cells in the tumor stroma are LRRC15 positive (International Publication No. 2017/095805). On the day of grouping, a vehicle, the antibody-drug conjugate […]-PBD, […]-V1-PBD, or […]-V2-PBD prepared in Example 5 was administered into the tail vein at a dose of 0.4 mg or 0.2 mg/kg. The abscissa indicates the number of days, and the ordinate indicates estimated tumor volume, and the error bars indicate SEM values. […] The antitumor effects of the antibody-drug conjugates were evaluated by using animal models in which cells of a human tumor cell line had been transplanted into immunodeficient mice, or cells of a mouse tumor cell line had been transplanted into immunocompetent mice. 4 to 6 Week-old SCID mice (CB17/Icr-Prkdc[scid]/CrlCrlj, Jackson Laboratory Japan, Inc.), NSG mice (NOD.Cg-Prkdcscid Il2rgtm1Wjl/SzJ, Jackson Laboratory Japan, Inc.), or B6J mice (C57BL/6J, Jackson Laboratory Japan, Inc.) were habituated for 3 days or more under SPF conditions before experimental use. The mice were fed with sterilized solid feed and given sterilized tap water. The major and minor diameters of the transplanted tumors were measured twice a week with an electronic digital caliper (Mitutoyo Corporation), and the estimated tumor volume was calculated using the following formula. […]

[2] = test system: Triple-negative breast carcinoma cell line HCC1806; assay: In vivo antitumor effect, HCC1806 subcutaneous transplant model; conditions: 0.4 mg/kg, tail vein, on Day 7, female SCID mice
Protocol: The antitumor effects of the antibody-drug conjugates were evaluated by using animal models in which cells of a human tumor cell line had been transplanted into immunodeficient mice, or cells of a mouse tumor cell line had been transplanted into immunocompetent mice. 4 to 6 Week-old SCID mice (CB17/Icr-Prkdc[scid]/CrlCrlj, Jackson Laboratory Japan, Inc.), NSG mice (NOD.Cg-Prkdcscid Il2rgtm1Wjl/SzJ, Jackson Laboratory Japan, Inc.), or B6J mice (C57BL/6J, Jackson Laboratory Japan, Inc.) were habituated for 3 days or more under SPF conditions before experimental use. The mice were fed with sterilized solid feed and given sterilized tap water. The major and minor diameters of the transplanted tumors were measured twice a week with an electronic digital caliper (Mitutoyo Corporation), and the estimated tumor volume was calculated using the following formula. Estimated tumor volume (mm^3) = 1/2 × major diameter (mm) × [minor diameter (mm)]^2 All antibody-drug conjugates were diluted with ABS and administered into the tail vein at doses shown in each Example. In addition, ABS (vehicle) or control hIgG-PBD prepared in Reference Example 4 was administered as the control group, in a similar manner. 5 to 6 Mice were used per group in the experiment. To analyze the LRRC15 expression in mouse tumor models, immunohistochemical staining of LRRC15 was performed. […]

B1: H02L01-PBD (conjugate)
heavy: EVQLVESGGGLVQPGGSLRLSCAASGFTFRDYYMAWVRQAPGKGLEWVSSIGFDESRTYYADSVKGRFTISRDDSKNTLYLQMNSLRAEDTAVYYCARHGVSYYSGDNWFAYWGQGTLVTVSSASTKGPSVFPLAPSSKSTSGGTAALGCLVKDYFPEPVTVSWNSGALTSGVHTFPAVLQSSGLYSLSSVVTVPSSSLGTQTYICNVNHKPSNTKVDKKVEPKSCDKTHTCPPCPAPEAAGGPSVFLFPPKPKDTLMISRTPEVTCVVVDVSHEDPEVKFNWYVDGVEVHNAKTKPREEQYNSTYRVVSVLTVLHQDWLNGKEYKCKVSNKALAAPIEKTISKAKGQPREPQVYTLPPSREEMTKNQVSLTCLVKGFYPSDIAVEWESNGQPENNYKTTPPVLDSDGSFFLYSKLTVDKSRWQQGNVFSCSVMHEALHNHYTQKSLSLSPGK
light: DIQMTQSPSSLSASVGDRVTITCKSSQGLLYSGDQKNYLAWYQQKPGKAPKLLIYWASTRQSGVPSRFSGSGSGTDFTLTISSLQPEDFATYYCQQYYDPPYTFGQGTKVEIKRTVAAPSVFIFPPSDEQLKSGTASVVCLLNNFYPREAKVQWKVDNALQSGNSQESVTEQDSKDSTYSLSSTLTLSKADYEKHKVYACEVTHQGLSSPVTKSFNRGEC
antitumor effect (estimated tumor volume) ([1]; 0.4 mg or 0.2 mg/kg): antitumor activity higher than that of the vehicle group | antitumor effect (estimated tumor volume) [2]: antitumor activity higher than that of the vehicle

B2: H02L01-V1-PBD (conjugate)
heavy: EVQLVESGGGLVQPGGSLRLSCAASGFTFRDYYMAWVRQAPGKGLEWVSSIGFDESRTYYADSVKGRFTISRDDSKNTLYLQMNSLRAEDTAVYYCARHGVSKYSGDNWFAYWGQGTLVTVSSASTKGPSVFPLAPSSKSTSGGTAALGCLVKDYFPEPVTVSWNSGALTSGVHTFPAVLQSSGLYSLSSVVTVPSSSLGTQTYICNVNHKPSNTKVDKKVEPKSCDKTHTCPPCPAPEAAGGPSVFLFPPKPKDTLMISRTPEVTCVVVDVSHEDPEVKFNWYVDGVEVHNAKTKPREEQYNSTYRVVSVLTVLHQDWLNGKEYKCKVSNKALAAPIEKTISKAKGQPREPQVYTLPPSREEMTKNQVSLTCLVKGFYPSDIAVEWESNGQPENNYKTTPPVLDSDGSFFLYSKLTVDKSRWQQGNVFSCSVMHEALHNHYTQKSLSLSPGK
light: DIQMTQSPSSLSASVGDRVTITCKSSQGLLYSGDQKNYLAWYQQKPGKAPKLLIYWASTRQSGVPSRFSGSGSGTDFTLTISSLQPEDFATYYCQQYYDPPYTFGQGTKVEIKRTVAAPSVFIFPPSDEQLKSGTASVVCLLNNFYPREAKVQWKVDNALQSGNSQESVTEQDSKDSTYSLSSTLTLSKADYEKHKVYACEVTHQGLSSPVTKSFNRGEC
antitumor effect (estimated tumor volume) ([1]; 0.3 mg/kg, huM25-PBD at the same dose): antitumor activity higher than that of the vehicle and huM25-PBD | antitumor effect (estimated tumor volume) ([1]; 0.4 mg or 0.2 mg/kg): antitumor activity higher than that of the vehicle group | antitumor effect (estimated tumor volume) [2]: antitumor activity higher than that of the vehicle

B3: H02L01-V2-PBD (conjugate)
heavy: EVQLVESGGGLVQPGGSLRLSCAASGFTFRDYYMAWVRQAPGKGLEWVSSIGFDESRTYYADSVKGRFTISRDDSKNTLYLQMNSLRAEDTAVYYCARHGVSRYSGDNWFAYWGQGTLVTVSSASTKGPSVFPLAPSSKSTSGGTAALGCLVKDYFPEPVTVSWNSGALTSGVHTFPAVLQSSGLYSLSSVVTVPSSSLGTQTYICNVNHKPSNTKVDKKVEPKSCDKTHTCPPCPAPEAAGGPSVFLFPPKPKDTLMISRTPEVTCVVVDVSHEDPEVKFNWYVDGVEVHNAKTKPREEQYNSTYRVVSVLTVLHQDWLNGKEYKCKVSNKALAAPIEKTISKAKGQPREPQVYTLPPSREEMTKNQVSLTCLVKGFYPSDIAVEWESNGQPENNYKTTPPVLDSDGSFFLYSKLTVDKSRWQQGNVFSCSVMHEALHNHYTQKSLSLSPGK
light: DIQMTQSPSSLSASVGDRVTITCKSSQGLLYSGDQKNYLAWYQQKPGKAPKLLIYWASTRQSGVPSRFSGSGSGTDFTLTISSLQPEDFATYYCQQYYDPPYTFGQGTKVEIKRTVAAPSVFIFPPSDEQLKSGTASVVCLLNNFYPREAKVQWKVDNALQSGNSQESVTEQDSKDSTYSLSSTLTLSKADYEKHKVYACEVTHQGLSSPVTKSFNRGEC
antitumor effect (estimated tumor volume) ([1]; 0.4 mg or 0.2 mg/kg): antitumor activity higher than that of the vehicle group
